Reference: doi:10.1101/2021.06.29.450403 (bioRxiv, 2021)

Experiments:
Chicken calmodulin (CaM) [1] = biological target: T1, Chicken calmodulin (CaM) (chicken, UniProt P62149 1-149); experiment: NMR titration
[2] = biological target: recombinant rAQP4ct protein (complete cytosolic C-terminal domain of human AQP4, residues 254-323) (human, UniProt P55087-1 254-323); experiment: steady-state intrinsic Trp fluorescence
Chicken calmodulin (CaM) [3] = biological target: T1, Chicken calmodulin (CaM); experiment: steady-state intrinsic Trp fluorescence

In the case of Ac-TARRWGKSGPLSTRENIMVAFKGVWT-NH2 [human AQP4nt synthetic peptide (residues 6-31, two Cys modified to Ser)], the Kd (Chicken calmodulin (CaM) [1]) is reported as 3.4 µM and the “stoichiometry N” value (Chicken calmodulin (CaM) [1]) is reported as 1.

B1: CaM bound AQP4nt-W30A peptide (complex)
chain 1: […]
chain 2: PTARRWGKSGPLSTRENIMVAFKGVAT
B1: binds [2].

PTARRWGKSGPLSTRENIMVAFKGVAT [recombinant rAQP4ntW30A peptide]: binds (Chicken calmodulin (CaM) [3]).

PTARRWGKSGPLSTR [recombinant rAQP4nt6-19 truncated peptide]: binds (Chicken calmodulin (CaM) [1]).

In the case of Ac-VEFKRRFKEAFSKAAQQTKGSYMEV-NH2 [human AQP4ct synthetic peptide (residues 256-280)], the “apparent Kd, C-lobe of CaM (first binding event)” value (Chicken calmodulin (CaM) [1]) is reported as 3.6 µM, the “apparent Kd, N-lobe of CaM (second binding event)” value (Chicken calmodulin (CaM) [1]) is reported as 114 µM and the “stoichiometry N” value (Chicken calmodulin (CaM) [1]) is reported as 2.
